Reference: paper PMC7995010

Biological target: ACE2‐Fc produced in glycoengineered ΔXT/FT Nicotiana benthamiana (human) (UniProt Q9BYF1)
Assay: SEC-MALS; isolated dimer fraction of ACE2‐Fc; native molecular mass by MALS

How did the stoichiometry N turn out when “ACE2‐Fc produced in glycoengineered ΔXT/FT Nicotiana benthamiana (from UniProt Q9BYF1 18-615) (Fc fusion)” was run?
Its stoichiometry N is 2.
